The values below are quoted from earlier work in publication PMC8020814.

In this series the target is C3b C3b (Homo sapiens) (UniProt P01024).
Sequence of UniProt P01024 (P01024 566-670): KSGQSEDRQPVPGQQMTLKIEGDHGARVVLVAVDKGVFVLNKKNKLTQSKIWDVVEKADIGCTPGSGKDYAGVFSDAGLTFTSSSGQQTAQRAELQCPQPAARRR

The Kd is the free concentration of one partner at which half of the binding sites on the other are occupied at equilibrium, for simple one-to-one binding. Consider Factor H FH(1-4) (from UniProt P08603), for which the Kd is 11 µM.
